From patent publication US20250163127A1 come the findings set out here.

B1: CD80 variant V22A/E35D/V68E/A71D IgV-Fc (Fc fusion)
chain: VIHVTKEVKEVATLSCGHNVSAEELAQTRIYWQKDKKMVLTMMSGDMNIWPEYKNRTIFDITNNLSIEILDLRPSDEGTYECVVLKYEKDAFKREHLAEVT
B2: CD80 variant Q33L/E35D/M47L/A71G/F92S IgV-Fc (Fc fusion)
chain: B1 chain with A22V, Q33L, M47L, E68V, D71G, F92S
B3: CD80 variant H18Y/E35D/V68M/L97Q IgV-Fc (Fc fusion)
chain: B1 chain with H18Y, A22V, E68M, D71A, L97Q
B4: CD80 variant Q33L/E35D/M43V/M47I/A71G IgV-Fc (Fc fusion)
chain: B1 chain with A22V, Q33L, M43V, M47I, E68V, D71G
B5: CD80 variant H18Y/Y31H/E35D/M47V/A71G/L85Q IgV-Fc (Fc fusion)
chain: B1 chain with H18Y, A22V, Y31H, M47V, E68V, D71G, L85Q
B6: CD80 variant Q33L/E35D/M47L/V68M/L85Q/E88D IgV-Fc (Fc fusion)
chain: B1 chain with A22V, Q33L, M47L, E68M, D71A, L85Q, E88D
B7: CD80 variant V22A/R29H/E35D/D46E/M47I IgV-Fc (Fc fusion)
chain: B1 chain with R29H, D46E, M47I, E68V, D71A
B8: CD80 variant Q33L/E35D/N48K/L85Q/L97Q IgV-Fc (Fc fusion)
chain: B1 chain with A22V, Q33L, N48K, E68V, D71A, L85Q, L97Q
B9: CD80 variant Q33L/E35D/M43I/L85Q/R94W IgV-Fc (Fc fusion)
chain: B1 chain with A22V, Q33L, M43I, E68V, D71A, L85Q, R94W
B10: CD80 variant E35D/D46E/M47V/L97Q IgV-Fc (Fc fusion)
chain: B1 chain with A22V, D46E, M47V, E68V, D71A, L97Q
B11: CD80 variant E35D/M47V/A71G/L85M/L97Q IgV-Fc (Fc fusion)
chain: B1 chain with A22V, M47V, E68V, D71G, L85M, L97Q
B12: variant PD-L2 IgV Q82R/V89D Fc fusion (Fc fusion)
chain: LFTVTVPKELYIIEHGSNVTLECNFDTGSHVNLGAITASLQKVENDTSPHRERATLLEEQLPLGKASFHIPQVQVRDEGQYRCIIIYGDAWDYKYLTLKVKA
B13: variant PD-L2 IgV H15Q/R76G/I85F Fc fusion (Fc fusion)
chain: B12 chain with H15Q, R76G, R82Q, I85F, D89V
B14: variant PD-L2 IgV H15Q/T47A/Q72H/R76G Fc fusion (Fc fusion)
chain: B12 chain with H15Q, T47A, Q72H, R76G, R82Q, D89V
B15: variant PD-L2 IgV I13V/H15Q/V89D Fc fusion (Fc fusion)
chain: B12 chain with I13V, H15Q, R82Q
B16: variant PD-L2 IgV H15Q/C23S/I86T Fc fusion (Fc fusion)
chain: B12 chain with H15Q, C23S, R82Q, I86T, D89V
B17: variant PD-L2 IgV N32D/S67L/V89D Fc fusion (Fc fusion)
chain: B12 chain with N32D, S67L, R82Q
B18: variant PD-L2 IgV I13V/S39I/E44D/Q82R/V89D Fc fusion (Fc fusion)
chain: B12 chain with I13V, S39I, E44D
B19: variant PD-L2 IgV I13V/Q72H/R76G/I86T Fc fusion (Fc fusion)
chain: B12 chain with I13V, Q72H, R76G, R82Q, I86T, D89V
B20: variant PD-L2 IgV H15Q/T47A/Q82R Fc fusion (Fc fusion)
chain: B12 chain with H15Q, T47A, D89V
B21: variant PD-L2 IgV H15Q/S39I/S67L/V89D Fc fusion (Fc fusion)
chain: B12 chain with H15Q, S39I, S67L, R82Q
B22: variant PD-L2 IgV I13V/S67L/Q82R/V89D Fc fusion (Fc fusion)
chain: B12 chain with I13V, S67L
B23: variant PD-L2 IgV H15Q/N32D/S67L/V89D Fc fusion (Fc fusion)
chain: B12 chain with H15Q, N32D, S67L, R82Q
B24: variant PD-L2 IgV I13V/H15Q/S39I/E44D/S67L Fc fusion (Fc fusion)
chain: B12 chain with I13V, H15Q, S39I, E44D, S67L, R82Q, D89V
B25: variant PD-L2 IgV H15Q/S67L/Q72H/R76G/V89D Fc fusion (Fc fusion)
chain: B12 chain with H15Q, S67L, Q72H, R76G, R82Q
B26: variant PD-L2 IgV H15Q/E44D/R76G/I85F Fc fusion (Fc fusion)
chain: B12 chain with H15Q, E44D, R76G, R82Q, I85F, D89V
B27: variant PD-L2 IgV I13V/S67L/V89D Fc fusion (Fc fusion)
chain: B12 chain with I13V, S67L, R82Q
B28: variant PD-L2 IgV E44D/S67L/Q72H/Q82R/V89D Fc fusion (Fc fusion)
chain: B12 chain with E44D, S67L, Q72H
B29: variant PD-L2 IgV H15Q/S67L/R76G Fc fusion (Fc fusion)
chain: B12 chain with H15Q, S67L, R76G, R82Q, D89V
B30: variant PD-L2 IgV S67L/V89D Fc fusion (Fc fusion)
chain: B12 chain with S67L, R82Q
B31: variant PD-L2 IgV I13V/H15Q/Q82R/V89D Fc fusion (Fc fusion)
chain: B12 chain with I13V, H15Q
B32: variant PD-L2 IgV I13V/H15Q/E44D/V89D Fc fusion (Fc fusion)
chain: B12 chain with I13V, H15Q, E44D, R82Q
B33: variant PD-L2 IgV S39I/V89D Fc fusion (Fc fusion)
chain: B12 chain with S39I, R82Q
B34: variant PD-L2 IgV E59G/Q82R Fc fusion (Fc fusion)
chain: B12 chain with E59G, D89V
B35: variant PD-L2 IgV H15Q/S67L/I86T Fc fusion (Fc fusion)
chain: B12 chain with H15Q, S67L, R82Q, I86T, D89V
B36: variant PD-L2 IgV E44D/V89D/W91R Fc fusion (Fc fusion)
chain: B12 chain with E44D, R82Q, W91R
B37: variant PD-L2 IgV I13V/H15Q/Q82R Fc fusion (Fc fusion)
chain: B12 chain with I13V, H15Q, D89V
B38: variant PD-L2 IgV H15Q/Q72H/Q74R/R76G/I86T Fc fusion (Fc fusion)
chain: B12 chain with H15Q, Q72H, Q74R, R76G, R82Q, I86T, D89V
B39: variant PD-L2 IgV S67L/I86T Fc fusion (Fc fusion)
chain: B12 chain with S67L, R82Q, I86T, D89V
B40: variant PD-L2 IgV I13V/H15Q/T47A/Q72H/R76G Fc fusion (Fc fusion)
chain: B12 chain with I13V, H15Q, T47A, Q72H, R76G, R82Q, D89V
B41: variant PD-L2 IgV H15Q/S39I/I86T Fc fusion (Fc fusion)
chain: B12 chain with H15Q, S39I, R82Q, I86T, D89V

Changes are numbered by the printed parent chain. Numbers in names are those of the source.

Chain of human PD-1 (human) (Q15116 25-288): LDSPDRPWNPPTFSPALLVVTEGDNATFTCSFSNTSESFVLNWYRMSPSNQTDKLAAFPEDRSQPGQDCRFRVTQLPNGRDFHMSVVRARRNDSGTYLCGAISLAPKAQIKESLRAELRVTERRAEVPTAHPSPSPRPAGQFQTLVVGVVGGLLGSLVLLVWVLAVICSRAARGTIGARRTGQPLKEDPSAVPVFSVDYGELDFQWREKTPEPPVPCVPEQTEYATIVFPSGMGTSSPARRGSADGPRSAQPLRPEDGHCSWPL

The target in one assay is CTLA4 (human). Briefly: flow cytometry, CHO cells stably expressing CTLA4. In general terms: A flow cytometer gives signals particle by particle.
Chain of CTLA4 (human) (chain, as listed by the source): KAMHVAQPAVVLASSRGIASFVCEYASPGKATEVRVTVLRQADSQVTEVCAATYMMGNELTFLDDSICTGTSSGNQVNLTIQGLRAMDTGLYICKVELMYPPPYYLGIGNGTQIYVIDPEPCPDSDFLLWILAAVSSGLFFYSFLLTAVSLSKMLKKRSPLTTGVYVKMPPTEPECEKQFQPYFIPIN
Turning to B1, the Fold change to WT CD80 came out at 2.45 fold and the MFI at 33.3 nM was found to be 437000 MFI.

Molecule B2 had a Fold change to WT CD80 of 0.01 fold and an MFI at 33.3 nM of 2110 MFI.

As to B3, the Fold change to WT CD80 came to 0.97 fold and the MFI at 33.3 nM is 173000 MFI.

In turn, B4 yielded a Fold change to WT CD80 of 0.08 fold and an MFI at 33.3 nM of 14000 MFI.

For the molecule B5, the Fold change to WT CD80 turned out to be 0.02 fold and the MFI at 33.3 nM was found to be 3840 MFI.

On to B6, for which the Fold change to WT CD80 was 0.02 fold and the MFI at 33.3 nM was found to be 3530 MFI.

In turn, B7 returned a Fold change to WT CD80 of 0.43 fold and an MFI at 33.3 nM of 77400 MFI.

Molecule B8 gave a Fold change to WT CD80 of 0.01 fold and an MFI at 33.3 nM of 1180 MFI.

With B9, the Fold change to WT CD80 stood at 0.01 fold and the MFI at 33.3 nM came out at 1080 MFI.

Turning to B10, the Fold change to WT CD80 turned out to be 1.71 fold and the MFI at 33.3 nM stood at 305000 MFI.

In the case of B11, the Fold change to WT CD80 was 1.34 fold and the MFI at 33.3 nM was found to be 239000 MFI.

The next assay concerns the target human PD-1 (human) (UniProt Q15116).
Assay: not given
Consider B12, for which the IFN gamma levels pg/mL (MLR) was found to be 1620 pg/mL.

The molecule B13 had an IFN gamma levels pg/mL (MLR) of 1730 pg/mL.

With B14, the IFN gamma levels pg/mL (MLR) stood at 1460 pg/mL.

B15: the IFN gamma levels pg/mL (MLR) stood at 1120 pg/mL.

With B16, the IFN gamma levels pg/mL (MLR) is 1850 pg/mL.

The molecule B17 gave an IFN gamma levels pg/mL (MLR) of 1190 pg/mL.

Consider B18, for which the IFN gamma levels pg/mL (MLR) was found to be 936 pg/mL.

The molecule B19 came in with an IFN gamma levels pg/mL (MLR) of 1950 pg/mL.

In turn, B20 gave an IFN gamma levels pg/mL (MLR) of 1320 pg/mL.

As to B21, the IFN gamma levels pg/mL (MLR) came out at 1230 pg/mL.

In the case of B22, the IFN gamma levels pg/mL (MLR) was found to be 1370 pg/mL.

With B23, the IFN gamma levels pg/mL (MLR) worked out at 1290 pg/mL.

For the molecule B24, the IFN gamma levels pg/mL (MLR) is 1260 pg/mL.

The molecule B25 returned an IFN gamma levels pg/mL (MLR) of 1060 pg/mL.

With B26, the IFN gamma levels pg/mL (MLR) stood at 1390 pg/mL.

On to B27, for which the IFN gamma levels pg/mL (MLR) is 868 pg/mL.

In turn, B28 displayed an IFN gamma levels pg/mL (MLR) of 1280 pg/mL.

B29: the IFN gamma levels pg/mL (MLR) amounted to 1430 pg/mL.

Take B30: the IFN gamma levels pg/mL (MLR) was 1230 pg/mL.

Take B31: the IFN gamma levels pg/mL (MLR) worked out at 1600 pg/mL.

B32 had an IFN gamma levels pg/mL (MLR) of 1380 pg/mL.

Consider B33, for which the IFN gamma levels pg/mL (MLR) was found to be 1310 pg/mL.

Regarding B34, the IFN gamma levels pg/mL (MLR) is 1510 pg/mL.

With B35, the IFN gamma levels pg/mL (MLR) turned out to be 1030 pg/mL.

Consider B36, for which the IFN gamma levels pg/mL (MLR) turned out to be 1560 pg/mL.

On to B37, for which the IFN gamma levels pg/mL (MLR) came out at 1430 pg/mL.

As to B38, the IFN gamma levels pg/mL (MLR) is 934 pg/mL.

B39 displayed an IFN gamma levels pg/mL (MLR) of 1020 pg/mL.

In the case of B40, the IFN gamma levels pg/mL (MLR) was 1470 pg/mL.

B41: the IFN gamma levels pg/mL (MLR) worked out at 1420 pg/mL.

The target of the next assay is PD-L1 (human). Briefly: flow cytometry, CHO cells stably expressing PD-L1.
Chain of PD-L1 (human) (chain, as listed by the source): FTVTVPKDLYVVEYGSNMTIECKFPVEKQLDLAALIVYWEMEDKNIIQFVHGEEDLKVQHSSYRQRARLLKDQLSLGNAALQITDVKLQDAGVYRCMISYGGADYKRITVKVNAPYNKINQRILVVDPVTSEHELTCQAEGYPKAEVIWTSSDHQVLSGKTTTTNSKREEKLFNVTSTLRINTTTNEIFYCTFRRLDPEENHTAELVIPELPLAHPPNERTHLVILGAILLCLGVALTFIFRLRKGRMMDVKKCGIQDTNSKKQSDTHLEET
Consider B1, for which the Fold change to WT was found to be 0.17 fold and the MFI at 33.3 nM turned out to be 1350 MFI.

Molecule B2 displayed a Fold change to WT of 3.53 fold and an MFI at 33.3 nM of 28000 MFI.

For the molecule B3, the Fold change to WT worked out at 15.3 fold and the MFI at 33.3 nM was 122000 MFI.

B4 returned a Fold change to WT of 9.82 fold and an MFI at 33.3 nM of 78000 MFI.

B5 yielded a Fold change to WT of 9.61 fold and an MFI at 33.3 nM of 76400 MFI.

For the molecule B6, the Fold change to WT was 15.8 fold and the MFI at 33.3 nM worked out at 126000 MFI.

Regarding B7, the Fold change to WT was determined as 3.2 fold and the MFI at 33.3 nM came out at 25400 MFI.

For the molecule B8, the Fold change to WT was found to be 5.69 fold and the MFI at 33.3 nM stood at 45200 MFI.

On to B9, for which the Fold change to WT amounted to 3.65 fold and the MFI at 33.3 nM was 29000 MFI.

Turning to B10, the Fold change to WT worked out at 2.45 fold and the MFI at 33.3 nM turned out to be 19500 MFI.

B11: the Fold change to WT worked out at 7.77 fold and the MFI at 33.3 nM was 61700 MFI.

In another assay the target is CD28 (human) (UniProt P10747). Briefly: flow cytometry, Jurkat cells (CD28).
For the molecule B1, the Fold change to WT worked out at 1.83 fold and the MFI at 33.3 nM came to 14000 MFI.

Turning to B2, the Fold change to WT turned out to be 0.05 fold and the MFI at 33.3 nM is 366 MFI.

B3 showed a Fold change to WT of 0.04 fold and an MFI at 33.3 nM of 299 MFI.

Consider B4, for which the Fold change to WT came to 0.04 fold and the MFI at 33.3 nM came out at 284 MFI.

As for B5, the Fold change to WT was 0.04 fold and the MFI at 33.3 nM is 268 MFI.

In the case of B6, the Fold change to WT is 0.03 fold and the MFI at 33.3 nM was found to be 264 MFI.

For the molecule B7, the Fold change to WT is 0.04 fold and the MFI at 33.3 nM was determined as 323 MFI.

B8 gave a Fold change to WT of 0.04 fold and an MFI at 33.3 nM of 279 MFI.

Molecule B9 showed a Fold change to WT of 0.04 fold and an MFI at 33.3 nM of 272 MFI.

In turn, B10 had a Fold change to WT of 0.05 fold and an MFI at 33.3 nM of 371 MFI.

In turn, B11 registered a Fold change to WT of 0.04 fold and an MFI at 33.3 nM of 339 MFI.
